Source: IntAct's records for PubMed 31515488

B1: Ornithine decarboxylase antizyme 3 (Homo sapiens), Q9UMX2 (parent)
chain: MPCKRCRPSVYSLSYIKRGKTRNYLYPIWSPYAYYLYCYKYRITLREKMLPRCYKSITYKEEEDLTLQPRSCLQCSESLVGLQEGKSTEQGNHDQLKELYSAGNLTVLATDPLLHQDPVQLDFHFRLTSQTSAHWHGLLCDRRLFLDIPYQALDQGNRESLTATLEYVEEKTNVDSVFVNFQNDRNDRGALLRAFSYMGFEVVRPDHPALPPLDNVIFMVYPLERDVGHLPSEPP
partner: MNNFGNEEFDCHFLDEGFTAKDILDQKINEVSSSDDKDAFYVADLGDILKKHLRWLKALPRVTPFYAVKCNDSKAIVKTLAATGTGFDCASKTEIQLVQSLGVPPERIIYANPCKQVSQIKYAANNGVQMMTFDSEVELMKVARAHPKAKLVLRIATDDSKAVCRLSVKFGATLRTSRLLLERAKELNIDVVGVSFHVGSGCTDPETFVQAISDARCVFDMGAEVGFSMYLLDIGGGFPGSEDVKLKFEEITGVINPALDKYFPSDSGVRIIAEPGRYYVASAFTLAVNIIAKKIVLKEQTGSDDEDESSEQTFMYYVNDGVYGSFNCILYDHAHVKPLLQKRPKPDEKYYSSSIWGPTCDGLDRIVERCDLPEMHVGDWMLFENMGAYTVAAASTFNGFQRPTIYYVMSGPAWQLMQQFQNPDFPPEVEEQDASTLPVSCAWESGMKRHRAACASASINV
B2: Ras-related protein Rab-39B (Homo sapiens), Q96DA2 (parent)
chain: MEAIWLYQFRLIVIGDSTVGKSCLIRRFTEGRFAQVSDPTVGVDFFSRLVEIEPGKRIKLQIWDTAGQERFRSITRAYYRNSVGGLLLFDITNRRSFQNVHEWLEETKVHVQPYQIVFVLVGHKCDLDTQRQVTRHEAEKLAAAYGMKYIETSARDAINVEKAFTDLTRDIYELVKRGEITIQEGWEGVKSGFVPNVVHSSEEVVKSERRCLC
partner: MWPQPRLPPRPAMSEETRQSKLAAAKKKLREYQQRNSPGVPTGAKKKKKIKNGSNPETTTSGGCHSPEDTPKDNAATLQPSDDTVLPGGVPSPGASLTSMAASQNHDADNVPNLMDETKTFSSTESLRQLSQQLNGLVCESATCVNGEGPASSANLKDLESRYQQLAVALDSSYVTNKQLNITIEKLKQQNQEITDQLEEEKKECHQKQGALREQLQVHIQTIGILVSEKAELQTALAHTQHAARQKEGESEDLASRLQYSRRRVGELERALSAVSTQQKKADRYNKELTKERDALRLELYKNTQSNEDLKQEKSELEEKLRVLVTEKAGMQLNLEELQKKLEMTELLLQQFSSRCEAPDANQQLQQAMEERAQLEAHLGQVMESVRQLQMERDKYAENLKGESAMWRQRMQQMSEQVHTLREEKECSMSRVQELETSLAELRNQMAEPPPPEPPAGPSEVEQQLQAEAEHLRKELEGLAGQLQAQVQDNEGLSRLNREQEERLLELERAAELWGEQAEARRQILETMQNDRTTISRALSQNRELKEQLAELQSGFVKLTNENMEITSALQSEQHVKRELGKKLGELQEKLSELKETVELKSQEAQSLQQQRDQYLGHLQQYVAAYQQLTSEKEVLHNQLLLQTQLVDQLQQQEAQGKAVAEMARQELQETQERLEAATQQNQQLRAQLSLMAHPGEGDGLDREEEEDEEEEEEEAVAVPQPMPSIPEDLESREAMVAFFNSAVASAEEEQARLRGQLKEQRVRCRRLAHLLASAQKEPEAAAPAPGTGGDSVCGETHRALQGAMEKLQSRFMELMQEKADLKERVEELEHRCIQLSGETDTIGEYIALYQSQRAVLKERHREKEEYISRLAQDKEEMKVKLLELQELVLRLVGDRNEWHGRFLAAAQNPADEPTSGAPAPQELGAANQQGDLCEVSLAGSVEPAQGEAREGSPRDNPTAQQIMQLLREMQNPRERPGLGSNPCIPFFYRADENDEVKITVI
B3: Ubiquitin thioesterase OTUB2 (Homo sapiens), Q96DC9 (parent)
chain: MSETSFNLISEKCDILSILRDHPENRIYRRKIEELSKRFTAIRKTKGDGNCFYRALGYSYLESLLGKSREIFKFKERVLQTPNDLLAAGFEEHKFRNFFNAFYSVVELVEKDGSVSSLLKVFNDQSASDHIVQFLRLLTSAFIRNRADFFRHFIDEEMDIKDFCTHEVEPMATECDHIQITALSQALSIALQVEYVDEMDTALNHHVFPEAATPSVYLLYKTSHYNILYAADKH
partner: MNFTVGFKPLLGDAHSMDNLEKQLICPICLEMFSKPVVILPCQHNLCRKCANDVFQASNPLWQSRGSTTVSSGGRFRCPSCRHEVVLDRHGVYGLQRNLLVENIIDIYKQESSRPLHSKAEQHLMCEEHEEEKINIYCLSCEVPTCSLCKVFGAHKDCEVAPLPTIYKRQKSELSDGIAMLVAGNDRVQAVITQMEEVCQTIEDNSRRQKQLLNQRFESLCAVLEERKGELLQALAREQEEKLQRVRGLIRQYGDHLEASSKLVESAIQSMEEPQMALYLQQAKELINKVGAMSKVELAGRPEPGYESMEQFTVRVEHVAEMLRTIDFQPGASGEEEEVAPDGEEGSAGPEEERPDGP
B4: Fructose-bisphosphate aldolase C (Homo sapiens), P09972 (parent)
chain: MPHSYPALSAEQKKELSDIALRIVAPGKGILAADESVGSMAKRLSQIGVENTEENRRLYRQVLFSADDRVKKCIGGVIFFHETLYQKDDNGVPFVRTIQDKGIVVGIKVDKGVVPLAGTDGETTTQGLDGLSERCAQYKKDGADFAKWRCVLKISERTPSALAILENANVLARYASICQQNGIVPIVEPEILPDGDHDLKRCQYVTEKVLAAVYKALSDHHVYLEGTLLKPNMVTPGHACPIKYTPEEIAMATVTALRRTVPPAVPGVTFLSGGQSEEEASFNLNAINRCPLPRPWALTFSYGRALQASALNAWRGQRDNAGAATEEFIKRAEVNGLAAQGKYEGSGEDGGAAAQSLYIANHAY
partner: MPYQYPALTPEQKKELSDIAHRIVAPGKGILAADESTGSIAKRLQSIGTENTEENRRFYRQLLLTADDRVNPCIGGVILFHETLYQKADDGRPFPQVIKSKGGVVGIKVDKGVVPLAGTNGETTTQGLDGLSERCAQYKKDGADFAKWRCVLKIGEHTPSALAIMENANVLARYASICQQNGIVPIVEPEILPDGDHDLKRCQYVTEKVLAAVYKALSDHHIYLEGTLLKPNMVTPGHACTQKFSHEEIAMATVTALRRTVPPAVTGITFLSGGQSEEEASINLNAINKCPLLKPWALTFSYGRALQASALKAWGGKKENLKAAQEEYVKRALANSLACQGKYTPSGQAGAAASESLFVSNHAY
B5: Protein BANP (Homo sapiens), Q8N9N5 (parent)
chain: MMSEHDLADVVQIAVEDLSPDHPVVLENHVVTDEDEPALKRQRLEINCQDPSIKTICLRLDSIEAKLQALEATCKSLEEKLDLVTNKQHSPIQVPMVAGSPLGATQTCNKVRCVVPQTTVILNNDRQNAIVAKMEDPLSNRAPDSLENVISNAVPGRRQNTIVVKVPGQEDSHHEDGESGSEASDSVSSCGQAGSQSIGSNVTLITLNSEEDYPNGTWLGDENNPEMRVRCAIIPSDMLHISTNCRTAEKMALTLLDYLFHREVQAVSNLSGQGKHGKKQLDPLTIYGIRCHLFYKFGITESDWYRIKQSIDSKCRTAWRRKQRGQSLAVKSFSRRTPNSSSYCPSEPMMSTPPPASELPQPQPQPQALHYALANAQQVQIHQIGEDGQVQVGHLHIAQVPQGEQVQITQDSEGNLQIHHVGQDGQLLEATRIPCLLAPSVFKASSGQVLQGAQLIAVASSDPAAAGVDGSPLQGSDIQVQYVQLAPVSDHTAGAQTAEALQPTLQPEMQLEHGAIQIQ
partner: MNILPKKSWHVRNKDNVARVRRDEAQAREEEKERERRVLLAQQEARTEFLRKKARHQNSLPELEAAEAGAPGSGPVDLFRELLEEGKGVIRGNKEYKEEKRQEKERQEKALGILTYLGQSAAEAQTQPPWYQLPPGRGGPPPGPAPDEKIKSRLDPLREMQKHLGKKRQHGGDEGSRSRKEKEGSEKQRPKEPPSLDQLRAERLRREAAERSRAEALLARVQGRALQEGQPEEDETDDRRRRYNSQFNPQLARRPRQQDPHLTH
B6: Alpha-taxilin (Homo sapiens), P40222 (parent)
chain: MKNQDKKNGAAKQSNPKSSPGQPEAGPEGAQERPSQAAPAVEAEGPGSSQAPRKPEGAQARTAQSGALRDVSEELSRQLEDILSTYCVDNNQGGPGEDGAQGEPAEPEDAEKSRTYVARNGEPEPTPVVNGEKEPSKGDPNTEEIRQSDEVGDRDHRRPQEKKKAKGLGKEITLLMQTLNTLSTPEEKLAALCKKYAELLEEHRNSQKQMKLLQKKQSQLVQEKDHLRGEHSKAVLARSKLESLCRELQRHNRSLKEEGVQRAREEEEKRKEVTSHFQVTLNDIQLQMEQHNERNSKLRQENMELAERLKKLIEQYELREEHIDKVFKHKDLQQQLVDAKLQQAQEMLKEAEERHQREKDFLLKEAVESQRMCELMKQQETHLKQQLALYTEKFEEFQNTLSKSSEVFTTFKQEMEKMTKKIKKLEKETTMYRSRWESSNKALLEMAEEKTVRDKELEGLQVKIQRLEKLCRALQTERNDLNKRVQDLSAGGQGSLTDSGPERRPEGPGAQAPSSPRVTEAPCYPGAPSTEASGQTGPQEPTSARA
partner: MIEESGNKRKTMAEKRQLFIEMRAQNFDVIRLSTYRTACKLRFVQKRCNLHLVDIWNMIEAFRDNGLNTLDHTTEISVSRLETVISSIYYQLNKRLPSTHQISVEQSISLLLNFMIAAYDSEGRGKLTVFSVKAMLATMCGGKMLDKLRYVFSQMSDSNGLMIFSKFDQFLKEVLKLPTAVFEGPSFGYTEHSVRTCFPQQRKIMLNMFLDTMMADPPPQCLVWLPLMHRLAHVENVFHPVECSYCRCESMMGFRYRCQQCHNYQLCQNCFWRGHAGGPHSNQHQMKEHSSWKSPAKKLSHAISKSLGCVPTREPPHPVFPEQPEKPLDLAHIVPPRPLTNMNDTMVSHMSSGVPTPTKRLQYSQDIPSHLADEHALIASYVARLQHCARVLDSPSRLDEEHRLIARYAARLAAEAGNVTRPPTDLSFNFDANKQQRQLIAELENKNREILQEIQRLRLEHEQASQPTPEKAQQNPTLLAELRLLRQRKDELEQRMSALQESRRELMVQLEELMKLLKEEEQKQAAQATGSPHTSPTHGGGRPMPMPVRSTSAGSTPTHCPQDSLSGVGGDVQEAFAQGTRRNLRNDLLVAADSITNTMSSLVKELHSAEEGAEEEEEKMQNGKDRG
B7: Cytohesin-4 (Homo sapiens), Q9UIA0 (parent)
chain: MDLCHPEPAELSSGETEELQRIKWHRKQLLEDIQKLKDEIADVFAQIDCFESAEESRMAQKEKELCIGRKKFNMDPAKGIQYFIEHKLLTPDVQDIARFLYKGEGLNKTAIGTYLGERDPINLQVLQAFVDCHEFANLNLVQALRQFLWSFRLPGEAQKIDRMMEAFATRYCLCNPGVFQSTDTCYVLSFSIIMLNTSLHNPNVRDRPPFERFVSMNRGINNGSDLPEDQLRNLFDSIKSEPFSIPEDDGNDLTHTFFNPDREGWLLKLGGRVKTWKRRWFILTDNCLYYFEFTTDKEPRGIIPLENLSVQKVDDPKKPFCLELYNPSCRGQKIKACKTDGDGRVVEGKHESYRISATSAEERDQWIESIRASITRVPFYDLVSTRKKKIASKQ
partner: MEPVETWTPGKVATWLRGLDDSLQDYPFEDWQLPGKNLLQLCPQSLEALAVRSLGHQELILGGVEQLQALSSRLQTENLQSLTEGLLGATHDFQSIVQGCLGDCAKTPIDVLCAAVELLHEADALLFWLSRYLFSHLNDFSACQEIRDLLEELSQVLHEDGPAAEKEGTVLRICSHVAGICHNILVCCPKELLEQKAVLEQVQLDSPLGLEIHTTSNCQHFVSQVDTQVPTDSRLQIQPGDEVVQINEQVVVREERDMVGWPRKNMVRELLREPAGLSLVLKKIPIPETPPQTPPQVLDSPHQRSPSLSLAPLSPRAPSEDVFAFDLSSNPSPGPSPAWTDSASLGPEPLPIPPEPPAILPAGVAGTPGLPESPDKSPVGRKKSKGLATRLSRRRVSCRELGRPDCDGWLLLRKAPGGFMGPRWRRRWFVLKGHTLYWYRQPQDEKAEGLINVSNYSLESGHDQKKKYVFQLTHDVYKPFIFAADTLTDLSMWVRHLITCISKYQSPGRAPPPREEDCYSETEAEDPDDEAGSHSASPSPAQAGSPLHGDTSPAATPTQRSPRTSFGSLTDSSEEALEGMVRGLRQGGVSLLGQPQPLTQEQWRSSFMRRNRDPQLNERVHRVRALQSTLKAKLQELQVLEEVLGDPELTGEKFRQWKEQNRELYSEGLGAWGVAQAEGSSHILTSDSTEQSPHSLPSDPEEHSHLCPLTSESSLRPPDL
B8: Dual specificity protein phosphatase 21 (Homo sapiens), Q9H596 (parent)
chain: MTASASSFSSSQGVQQPSIYSFSQITRSLFLSNGVAANDKLLLSSNRITAIVNASVEVVNVFFEGIQYIKVPVTDARDSRLYDFFDPIADLIHTIDMRQGRTLLHCMAGVSRSASLCLAYLMKYHSMSLLDAHTWTKSRRPIIRPNNGFWEQLINYEFKLFNNNTVRMINSPVGNIPDIYEKDLRMMISM

Variants of: B1
Details: with dcor_human ODC1, P11926

Variant	effect of a mutation on the interaction
R193Q	disrupting interaction strength
V174A	disrupting interaction strength

Variants of: B2
Details: with goga2_human GOLGA2, Q08379

Variant	effect of a mutation on the interaction
R177S	with no effect

Variants of: B3
Details: with tri54_human TRIM54, Q9BYV2

Variant	effect of a mutation on the interaction
R146P	disrupting interaction strength
V78I	with no effect

Variants of: B4
Details: with aldoa_human ALDOA

Variant	effect of a mutation on the interaction
N312S	with no effect

Variants of: B5
Details: with leng1_human LENG1, Q96BZ8

Variant	effect of a mutation on the interaction
P348S	with no effect

Variants of: B6
Details: with dtnb_human DTNB

Variant	effect of a mutation on the interaction
R154G	disrupting interaction strength

Variants of: B7
Details: with cnkr1_human CNKSR1, Q969H4

Variant	effect of a mutation on the interaction
M74V	with no effect
A9T	with no effect

Variants of: B8
Details: with gors2_human GORASP2, Q9H8Y8

Variant	effect of a mutation on the interaction
S18F	with no effect
